Measured values: article PMC3897377, “Utilizing Nanobody Technology to Target Non-Immunodominant Domains of VAR2CSA” (PLoS ONE, 2014)

B1: Nb04 (VHH)
VHH: QVQLQESGGGLAQPGGSLRLSCTASGRIYRMAWFRQAPGKERELVASITHIGATNYADSVKGRFTISRDNFKNTMYLQMNDLKPEDTAVYYCNAASSWGKGTQVTVSS
notes: from an alpaca immunized with full-length VAR2CSA; pHEN6c vector; also called Nanobody 04; VHH; source: E. coli WK6, periplasmic extract, purified (HisTrap); not shown: His6, C-terminal, kept
B2: Nb09 (VHH)
VHH: QVQLQESGGGLVQAGGSLRLSCAASGRTFSNYGMGWFRQTPEKERDLLAAVTWSGGRTYYADSVKGRFTISRDNAKNTVYLQMNSLKPEDTAVYYCAAGELFYSDYGPEGEWDYWGQGTQVTVSS
notes: from an alpaca immunized with full-length VAR2CSA; pHEN6c vector; also called Nanobody 09; VHH; source: E. coli WK6, periplasmic extract, purified (HisTrap); not shown: His6, C-terminal, kept

Legend:
[1] = molecular target: T1, full-length VAR2CSA (FV2) recombinant protein, FCR3 (Plasmodium falciparum FCR3, UniProt Q6UDW7, strain); assay: ELISA; recombinant VAR2CSA protein or domain (50 nM in PBS) coated on MaxiSorp plates overnight at 4°C; Nb 50 nM in 1% skim milk in PBS, 90 min RT; detected with rabbit anti-camel and HRP anti-rabbit, OD 490 nm after 20 min; conditions: both partners purified
T1 construct: VAR2CSA (PfEMP1 family), Plasmodium falciparum strain FCR3, full-length recombinant protein; also called FV2-FCR3; source: recombinant, purified, expressed as described in [33]

[2] = molecular target: T2, VAR2CSA DBL6 domain, baculovirus-produced (Plasmodium falciparum FCR3, UniProt Q6UDW7, strain); assay: as above; conditions: both partners purified
T2 construct: DBL6 domain; also called DBL6ε; source: baculovirus expression system, as described in [11], [20]

[3] = molecular target: T3, native VAR2CSA on the surface of NF54 infected erythrocytes (Plasmodium falciparum NF54 (VAR2CSA …, UniProt Q8I639, strain)); assay: flow cytometry on cells; late stage VAR2CSA-expressing IE (FCR3, 7201, NF54) incubated with Nb (0,1 mg/ml), 30 min at 4°C; detected with mouse anti-penta-His and FITC anti-mouse; specific recognition defined by an MFI ratio >1.2; conditions: one partner purified
T3 construct: VAR2CSA of the P. falciparum parasite line NF54, native protein on infected erythrocytes; also called VAR2CSA-expressing IE (NF54); source: endogenous, on P. falciparum NF54-infected erythrocytes

[4] = molecular target: T4, VAR2CSA DBL3 domain, baculovirus-produced (Plasmodium falciparum FCR3 (implied), UniProt Q6UDW7, strain); assay: ELISA; recombinant VAR2CSA protein or domain (50 nM in PBS) coated on MaxiSorp plates overnight at 4°C; Nb 50 nM in 1% skim milk in PBS, 90 min RT; detected with rabbit anti-camel and HRP anti-rabbit, OD 490 nm after 20 min; conditions: both partners purified
T4 construct: DBL3 domain; also called DBL3X; source: baculovirus expression system, as described in [11], [20]

[5] = molecular target: T5, ID1–ID2a minimal CSA-binding region of VAR2CSA, baculovirus-produced (Plasmodium falciparum FCR3, UniProt Q6UDW7, strain); assay: as above; conditions: both partners purified
T5 construct: VAR2CSA, P. falciparum FCR3; ID1–ID2a region encompassing DBL2X with the flanking parts ID1 and ID2; also called ID1–ID2a (BV); source: baculovirus expression system, as described in [11], [20]

[6] = molecular target: T6, DBL1-ID2a protein of VAR2CSA (containing minimal CSA-binding region), baculovirus-produced (Plasmodium falciparum FCR3 (assumed for …, UniProt Q6UDW7, strain)); assay: far-Western, overlay or dot blot; Western blot: recombinant VAR2CSA domain (0,4 µg/lane) run NON-REDUCED on SDS gel, blotted to nitrocellulose, probed with 50 nM Nb in TBST; rabbit anti-camel and HRP anti-rabbit; conditions: both partners purified
T6 construct: DBL1-ID2a; source: baculovirus-produced

[7] = molecular target: T7, DBL1-ID2a of VAR2CSA of the heterologous 3D7 parasite line (Plasmodium falciparum 3D7, UniProt Q8I639, strain); assay: ELISA; recombinant VAR2CSA protein or domain (50 nM in PBS) coated on MaxiSorp plates overnight at 4°C; Nb 50 nM in 1% skim milk in PBS, 90 min RT; detected with rabbit anti-camel and HRP anti-rabbit, OD 490 nm after 20 min; conditions: both partners purified
T7 construct: VAR2CSA, P. falciparum strain 3D7; also called 3D7 DBL1-ID2a; source: baculovirus expression system

[8] = molecular target: T8, ID1–ID2a minimal CSA-binding region of VAR2CSA, produced in E. coli (Plasmodium falciparum FCR3, UniProt Q6UDW7, strain); assay: as above; conditions: both partners purified
T8 construct: ID1–ID2a region; also called ID1–ID2a (coli); source: E. coli

[9] = molecular target: T9, ID1–ID2a of VAR2CSA of the heterologous 3D7 parasite line (Plasmodium falciparum 3D7, UniProt Q8I639, strain); assay: as above; conditions: both partners purified
T9 construct: VAR2CSA, P. falciparum strain 3D7; also called 3D7 ID1–ID2a; source: baculovirus expression system

[10] = molecular target: T2, VAR2CSA DBL6 domain, …; assay: as above; conditions: both partners purified; remark: listed apart in the source
[11] = molecular target: T10, ID1–ID2a minimal CSA-binding region of VAR2CSA, produced in Schneider 2 (S2) cells (Plasmodium falciparum FCR3, UniProt Q6UDW7, strain); assay: as above; conditions: both partners purified
T10 construct: ID1–ID2a region; also called ID1–ID2a (S2); source: Schneider 2 (S2) cells

| Binder | binding result [1] | binding result [2] | binding result [3] | binding result [4] | binding result [5] | binding result [6] | binding result [7] | binding result [8] | binding result [9] | binding result [10] | binding result [11] |
| --- | --- | --- | --- | --- | --- | --- | --- | --- | --- | --- | --- |
| B1 | binds | binds | binds | no binding (tested: 50 nM) |  |  |  |  |  |  |  |
| B2 | binds |  | binds | no binding (tested: 50 nM) | binds | binds | binds | binds | binds | no binding (tested: 50 nM) | binds |
